# Target: T1, recombinant human full-length TrpRS with C-terminal His6 tag
# T1 chain: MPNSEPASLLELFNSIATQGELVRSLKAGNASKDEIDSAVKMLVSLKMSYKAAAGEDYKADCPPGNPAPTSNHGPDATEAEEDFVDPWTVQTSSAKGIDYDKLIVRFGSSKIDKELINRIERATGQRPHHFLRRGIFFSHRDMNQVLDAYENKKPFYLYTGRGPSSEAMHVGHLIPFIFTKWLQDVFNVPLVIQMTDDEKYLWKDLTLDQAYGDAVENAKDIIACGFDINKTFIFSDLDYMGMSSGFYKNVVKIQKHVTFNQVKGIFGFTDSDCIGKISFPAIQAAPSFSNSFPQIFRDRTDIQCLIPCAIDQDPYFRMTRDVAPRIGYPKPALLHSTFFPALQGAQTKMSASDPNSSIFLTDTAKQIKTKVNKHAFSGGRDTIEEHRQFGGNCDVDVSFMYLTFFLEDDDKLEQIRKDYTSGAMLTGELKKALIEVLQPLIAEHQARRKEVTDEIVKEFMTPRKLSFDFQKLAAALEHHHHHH
protein,measurement,value
PMN elastase (protein) IVGGRRARPHAWPFMVSLQLRGGHFCGATLIAPNFVMSAAHCVANVNVRAVRVVLGAHNLSRREPTRQVFAVQRIFENGYDPVNLLNDIVILQLNGSATINANVQVAQLPAQGRRLGNGVQCLAMGWGLLGRNRGIASVLQELNVTVVTSLCRRSNVCTLVRGRQAGVCFGDSGSPLVCNGLIHGIASFVRGGCASGLYPDAFAPVAQFVNWIDSIIQ,"cleavage of TrpRS by the protease, fragments on 12.5% SDS-PAGE","PMN elastase cleavage of a full-length TrpRS of about 53 kDa generated a major fragment of about 46 kDa (SEQ ID NO: 5, T1, having the C-terminal histidine tag, or an SY variant thereof) and a minor fragment of about 43.5 kDa"

# From US20130108608
